# Substitutions are numbered along the chain they refer to.
# T1: Human latent myostatin (human, UniProt O14793 25-266; O14793 267-375)
# T1 construct: Biotinylated in the ELISAs; also called human myostatin latent form
# T1 sequence 1: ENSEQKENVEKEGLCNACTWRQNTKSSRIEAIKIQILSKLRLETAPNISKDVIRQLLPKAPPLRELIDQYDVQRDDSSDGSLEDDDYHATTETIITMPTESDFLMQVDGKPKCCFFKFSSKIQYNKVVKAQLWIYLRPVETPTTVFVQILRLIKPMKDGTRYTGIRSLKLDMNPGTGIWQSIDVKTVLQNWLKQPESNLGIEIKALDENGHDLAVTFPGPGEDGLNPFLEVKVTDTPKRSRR
# T1 sequence 2: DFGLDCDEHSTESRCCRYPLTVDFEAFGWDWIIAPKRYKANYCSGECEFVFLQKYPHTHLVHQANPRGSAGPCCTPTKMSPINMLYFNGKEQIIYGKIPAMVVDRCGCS
# T2: cynomolgus monkey FcγRIIa3 extracellular domain, His-tagged (cynomolgus monkey)
# T2 construct: also called cyno FcγRIIa3; cynoFcgRIIa3; not shown: C-terminal His-tag
# T2 chain: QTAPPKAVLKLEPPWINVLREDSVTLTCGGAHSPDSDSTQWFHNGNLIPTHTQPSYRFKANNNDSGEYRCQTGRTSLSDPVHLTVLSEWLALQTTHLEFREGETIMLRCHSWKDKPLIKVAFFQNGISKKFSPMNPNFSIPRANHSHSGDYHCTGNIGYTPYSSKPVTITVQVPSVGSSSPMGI
# T3: human FcγRIIb extracellular domain, His-tagged (human, UniProt P31994 43-217)
# T3 construct: also called FcgRIIb (human); not shown: C-terminal His-tag
# T3 sequence: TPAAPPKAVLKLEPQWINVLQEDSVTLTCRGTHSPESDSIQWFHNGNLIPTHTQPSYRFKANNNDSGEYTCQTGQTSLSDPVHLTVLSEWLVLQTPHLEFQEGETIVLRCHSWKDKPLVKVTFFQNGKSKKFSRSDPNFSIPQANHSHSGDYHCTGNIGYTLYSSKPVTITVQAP
# T4: cynomolgus monkey FcγRIIa1 extracellular domain, His-tagged (cynomolgus monkey)
# T4 construct: also called cyno FcγRIIa1; cynoFcgRIIa1; not shown: C-terminal His-tag
# T4 chain: T2 chain with T95P, A121T, S128A, P133H, N135D
# T5: cynomolgus monkey FcγRIIb extracellular domain, His-tagged (cynomolgus monkey)
# T5 construct: also called cyno FcγRIIb; cynoFcγRIIb; not shown: C-terminal His-tag
# T5 chain: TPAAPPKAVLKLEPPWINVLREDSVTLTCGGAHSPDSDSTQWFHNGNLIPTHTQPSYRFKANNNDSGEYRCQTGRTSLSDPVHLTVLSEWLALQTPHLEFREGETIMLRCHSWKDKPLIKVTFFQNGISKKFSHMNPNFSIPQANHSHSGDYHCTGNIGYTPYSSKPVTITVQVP
# T6: human FcγRIIb extracellular domain, His-tagged (human, UniProt P31994 43-217)
# T6 construct: also called human FcgRIIb; not shown: His-tag added to the C-terminus
# T6 sequence: T3 sequence
# T7: cynomolgus monkey FcγRIIa3 extracellular domain, His-tagged (cynomolgus monkey)
# T7 construct: also called cyno FcgRIIa3; cynoFcγRIIa3; not shown: His-tag added to the C-terminus
# T7 chain: T2 chain
# T8: human FcγRIIaR extracellular domain with C-terminal His-tag (human, UniProt P12318 34-217)
# T8 construct: also called human FcgRIIaR; FcγRIIa (type R)
# T8 chain: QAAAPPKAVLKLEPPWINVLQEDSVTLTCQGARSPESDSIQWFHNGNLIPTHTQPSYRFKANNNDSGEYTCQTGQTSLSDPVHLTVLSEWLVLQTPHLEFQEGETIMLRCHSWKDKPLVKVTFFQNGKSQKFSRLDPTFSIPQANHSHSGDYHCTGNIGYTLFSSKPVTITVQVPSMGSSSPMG
# T9: cynomolgus monkey FcγRIIa1 extracellular domain with C-terminal His-tag (cynomolgus monkey)
# T9 construct: also called cyno FcgRIIa1; cynoFcγRIIa1
# T9 chain: T2 chain with T95P, A121T, S128A, P133H, N135D
# B1: MST1538 (antibody, human IgG1, kappa, V domains shown)
# VH: QSLEESGGGLVKPGGTLTLTCKASGIDFSSYYYMCWVRQAPGKGLEWIACIYAGISGSTYYASWAKGRFTISKTSSTTVTLQMTSLTAADTATYFCARDPYHFDYGSLWGPGTLVTVSS
# VL: ALVMTQTPASVSAAVGGTVTINCQASQSVYGGNELSWYQQEPGQPPKLLIYSASKLASGVPSRFKGSGSGTQFTLTISGVQCDDAAAYYCAGYRTYSDDDNAFGGGTKVEIKR
# notes: Constant regions as for MST1504
# B2: MST1572 (antibody, human IgG1, kappa, V domains shown)
# VH: QSVEESGGRLVTPGTPLTLTCTVSGFSLSSYAMSWVRQAPGKGLEWIGIIYGVGSTYYASWAKGRFTISKTSTTVDLKIASPTTEDTATYFCARDDYGWGYTNLWGPGTLVTVSS
# VL: QVLTQTPSSVSAAVGGTVTINCQSSQSVYNNNYLAWFQQKPGQPPKLLIYDASKLASGVPSRFKGSGSGTQFTLTISGVQCDDAATYYCQGSYYSSGWYRAFGGGTKVEIKR
# notes: as for B1
# B3: M103205H795-MY010/M103202L889-SK1 (antibody, human IgG1, kappa, name in EU numbering)
# heavy: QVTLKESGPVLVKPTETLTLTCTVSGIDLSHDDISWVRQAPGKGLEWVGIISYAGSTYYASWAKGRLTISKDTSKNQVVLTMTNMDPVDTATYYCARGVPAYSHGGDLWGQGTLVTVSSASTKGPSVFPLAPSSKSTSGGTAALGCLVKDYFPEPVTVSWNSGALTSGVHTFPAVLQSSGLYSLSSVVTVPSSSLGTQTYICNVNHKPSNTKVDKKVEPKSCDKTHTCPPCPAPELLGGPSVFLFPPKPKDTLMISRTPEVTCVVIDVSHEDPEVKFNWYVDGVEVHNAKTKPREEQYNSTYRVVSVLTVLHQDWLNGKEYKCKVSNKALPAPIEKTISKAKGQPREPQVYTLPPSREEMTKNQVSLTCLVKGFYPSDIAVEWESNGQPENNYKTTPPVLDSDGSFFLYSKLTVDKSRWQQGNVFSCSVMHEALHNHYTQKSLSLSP
# light: DIVMTQSPATLSLSPGERATLSCTSSQSVYHANWLSWFQQKPGQPPKLLIYWASTLAYGVPSRFSGSGSGTDFTLTISSLQPEDAATYYCAGGYGGGRYAFGQGTKVEIKRTVAAPSVFIFPPSDEQLKSGTASVVCLLNNFYPREAKVQWKVDNALQSGNSQESVTEQDSKDSTYSLSSTLTLSKADYEKHKVYACEVTHQGLSSPVTKSFNRGEC
# notes: Substitution introduced into M103205H795-SG1; EU numbering
# B4: M103205H795-MY016/M103202L889-SK1 (antibody, human IgG1, kappa, name in EU numbering)
# heavy: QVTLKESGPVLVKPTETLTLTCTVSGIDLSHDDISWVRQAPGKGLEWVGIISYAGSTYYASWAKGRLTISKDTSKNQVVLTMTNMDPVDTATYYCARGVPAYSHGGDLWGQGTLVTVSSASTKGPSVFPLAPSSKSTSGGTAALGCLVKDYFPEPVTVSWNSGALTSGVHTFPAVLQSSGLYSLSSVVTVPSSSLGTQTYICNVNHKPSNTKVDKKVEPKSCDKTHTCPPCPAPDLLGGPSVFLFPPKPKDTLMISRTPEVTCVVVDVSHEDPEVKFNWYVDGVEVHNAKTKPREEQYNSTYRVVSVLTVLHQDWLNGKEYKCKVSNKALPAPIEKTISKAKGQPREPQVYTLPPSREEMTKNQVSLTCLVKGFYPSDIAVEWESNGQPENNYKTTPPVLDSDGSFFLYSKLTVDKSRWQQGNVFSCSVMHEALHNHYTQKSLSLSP
# light: B3 light
# notes: Substitution introduced into M103205H795-SG1
# B5: M103205H795-MY037/M103202L889-SK1 (antibody, human IgG1, kappa, name in EU numbering)
# heavy: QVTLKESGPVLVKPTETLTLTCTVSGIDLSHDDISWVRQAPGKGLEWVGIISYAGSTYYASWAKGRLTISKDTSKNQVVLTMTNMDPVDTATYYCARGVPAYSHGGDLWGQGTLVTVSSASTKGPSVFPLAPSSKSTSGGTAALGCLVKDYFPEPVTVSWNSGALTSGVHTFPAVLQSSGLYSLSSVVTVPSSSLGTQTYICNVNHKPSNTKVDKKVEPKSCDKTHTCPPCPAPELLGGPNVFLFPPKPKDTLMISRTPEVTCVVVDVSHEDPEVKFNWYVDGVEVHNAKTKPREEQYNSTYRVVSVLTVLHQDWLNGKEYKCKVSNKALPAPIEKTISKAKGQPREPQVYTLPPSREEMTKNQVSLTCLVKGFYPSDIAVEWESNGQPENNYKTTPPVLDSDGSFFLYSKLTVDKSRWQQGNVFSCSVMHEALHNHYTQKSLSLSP
# light: B3 light
# notes: as for B3
# B6: M103205H795-MY261/M103202L889-SK1 (antibody, human IgG1, kappa, name in EU numbering)
# heavy: QVTLKESGPVLVKPTETLTLTCTVSGIDLSHDDISWVRQAPGKGLEWVGIISYAGSTYYASWAKGRLTISKDTSKNQVVLTMTNMDPVDTATYYCARGVPAYSHGGDLWGQGTLVTVSSASTKGPSVFPLAPSSKSTSGGTAALGCLVKDYFPEPVTVSWNSGALTSGVHTFPAVLQSSGLYSLSSVVTVPSSSLGTQTYICNVNHKPSNTKVDKKVEPKSCDKTHTCPPCPAPELLHGPSVFLFPPKPKDTLMISRTPEVTCVVVDVSDEDPEVKFNWYVDGVEVHNAKTKPREEQYNSTYRVVSVLTVLHQDWLNGKEYKCKVSNKALPKPIEKTISKAKGQPREPQVYTLPPSREEMTKNQVSLTCLVKGFYPSDIAVEWESNGQPENNYKTTPPVLDSDGSFFLYSKLTVDKSRWQQGNVFSCSVMHEALHNHYTQKSLSLSP
# light: B3 light
# notes: Asn at EU 236 of MY201 replaced with His
# B7: M103205H795-MY453/M103202L889-SK1 (antibody, human IgG1, kappa)
# heavy: B6 heavy with P234R, H238T
# light: B3 light
# notes: Substitutions in EU numbering on SG1
# Experiments:
# Human latent myostatin = target: T1, Human latent myostatin; assay: Western blot with the antibody as probe on GST-tagged 100-amino-acid fragments of the human latent myostatin propeptide expressed in E. coli BL21 (lanes 1-8), GST control (lane 9) and human latent myostatin 100 ng (lane 10)
# Text: Fragments of the N-terminal propeptide coding region of human latent myostatin were cloned into a pGEX4.1 vector so as to produce GST tagged propeptide fragments of 100 amino acid each, with 80 amino acid overlap (FIG. 22A). Protein expression was induced in transformed BL21 competent cells with Overnight Express Autoinduction System (Merck Millipore) and protein was extracted using the BUGBUSTER® protein extraction reagent (Novagen).
# [1] = target: T2, cynomolgus monkey FcγRIIa3 …; assay: SPR Biacore, antibody captured, FcgR analyte
# [2] = target: T3, human FcγRIIb extracellular domain, …; assay: SPR Biacore, antibody captured, FcgR analyte
# [3] = target: T4, cynomolgus monkey FcγRIIa1 …; assay: SPR Biacore, antibody captured, FcgR analyte
# [4] = target: T2, cynomolgus monkey FcγRIIa3 …; assay: SPR Biacore, KD(SG1)/KD(variant)
# [5] = target: T5, cynomolgus monkey FcγRIIb extracellular …; assay: SPR Biacore, KD(SG1)/KD(variant)
# [6] = target: T4, cynomolgus monkey FcγRIIa1 …; assay: SPR Biacore, KD(SG1)/KD(variant)
# [7] = target: T10, human FcγRIIIaV extracellular domain, His-tagged (human, UniProt P08637 17-208); assay: SPR Biacore, KD(SG1)/KD(variant)
# T10 construct: also called FcgRIIIaV; not shown: C-terminal His-tag
# [8] = target: T6, human FcγRIIb extracellular domain, …; assay: SPR (BIACORE), antibody captured on chip, soluble FcgR as analyte, 25 C
# Protocol: (§1) The kinetic analysis of interactions between these antibodies and FcγR was carried out using BIACORE® T200 or BIACORE® 4000 (GE Healthcare). HBS-EP+ (GE Healthcare) was used as the running buffer, and the measurement temperature was set to 25° C. […] After the measurement, the antibody captured on the chip was washed off by allowing reaction with 10 mM glycine-HCl, pH1.5 and 25 mM NaOH so that the chip was regenerated and used repeatedly. The sensorgrams obtained as measurement results were analyzed by the 1:1 Langmuir binding model using the BIACORE® Evaluation Software to calculate the binding rate constant ka (L/mol/s) and dissociation rate constant kd (1/s), and the dissociation constant KD (mol/L) was calculated from these values. […] Regarding such interactions, KD values were calculated using the following 1:1 binding model described in BIACORE® T100 Software Handbook BR1006-48 Edition AE.
# [9] = target: T7, cynomolgus monkey FcγRIIa3 …; assay: as above
# Protocol: as §1
# [10] = target: T11, cynomolgus monkey FcγRIIIaS extracellular domain, His-tagged (cynomolgus monkey, UniProt A3RFZ7 21-206 (rhesus entry)); assay: as above
# T11 construct: also called cyno FcgRIIIaS; cynoFcγRIIIaS; not shown: His-tag added to the C-terminus
# Protocol: as §1
# [11] = target: T12, human FcγRIIIaV extracellular domain with C-terminal His-tag (human, UniProt P08637 17-208); assay: SPR (Biacore), antibody captured, FcgR analyte
# T12 construct: also called human FcgRIIIaV
# [12] = target: T8, human FcγRIIaR extracellular domain …; assay: SPR (Biacore), antibody captured, FcgR analyte
# [13] = target: T9, cynomolgus monkey FcγRIIa1 …; assay: SPR (Biacore), antibody captured, FcgR analyte
# T10 sequence (P08637 17-208 F176V): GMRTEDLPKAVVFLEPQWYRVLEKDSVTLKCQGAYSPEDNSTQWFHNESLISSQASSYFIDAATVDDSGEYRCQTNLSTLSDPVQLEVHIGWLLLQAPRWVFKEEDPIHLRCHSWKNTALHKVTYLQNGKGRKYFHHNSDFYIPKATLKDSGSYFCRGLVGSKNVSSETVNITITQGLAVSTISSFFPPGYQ
# T12 sequence (P08637 17-208 F176V): as above
# T11 sequence (A3RFZ7 21-206): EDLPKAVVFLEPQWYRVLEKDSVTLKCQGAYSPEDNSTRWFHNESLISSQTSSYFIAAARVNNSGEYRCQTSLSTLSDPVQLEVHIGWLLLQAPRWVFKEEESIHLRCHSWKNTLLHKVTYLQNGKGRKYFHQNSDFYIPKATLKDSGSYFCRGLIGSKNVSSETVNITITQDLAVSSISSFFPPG
binder,measurement,setting,value
B1,binding result,Human latent myostatin,binds
B2,binding result,Human latent myostatin,binds
B3,Kd,[1],16 µM
same,Kd,[2],5.1 µM
same,Kd,[3],3.5 µM
same,KD fold (SG1 = 1),[4],1.1 fold
same,KD fold (SG1 = 1),[5],0.9 fold
same,KD fold (SG1 = 1),[6],0.9 fold
B4,KD fold (SG1 = 1),[7],2.19 fold
B5,KD fold (SG1 = 1),[4],1.6 fold
same,KD fold (SG1 = 1),[7],2.19 fold
B6,Kd,[8],0.053 µM
same,Kd,[9],55 µM
same,Kd,[10],2.4 µM
B7,Kd,[11],1.4 µM
same,Kd,[12],0.016 µM
same,Kd,[13],6.2 µM
